Test results from US20240252614A1 (Pfizer, published 2024).

What was measured:
hMPV B F WT Control = hMPV B F WT Control (hMPV B, UniProt Q6WB98 19-102); assay: BLI, no stress
Method: (§1) All measurements were conducted at 30° C. temperature in 96-well black plates (Corning, Corning, NY) with a final volume of 240 μL per well at a constant agitation rate of 1000 RPM.
(§2) Conformation integrity of hMPV B F protein mutants were evaluated by a thermal stress experiment. Crude cell culture supernatants were normalized based on the results of the titer quantitation and then incubated for 1 hour at room temperature and two higher temperatures. For the testing of hMPV B single mutants, the two temperatures were 53° C. and 56° C. After the incubation, the protein mutants were probed with prefusion specific monoclonal antibody hMPV-2 by OCTET HTX. Anti-Human IgG Fc Capture (AHC) biosensors were first equilibrated in PB before being dipped into more PB for to establish the initial baseline. Biosensors were incubated with hMPV-2 before being equilibrated in PB to establish the experimental baseline. The mAb-bound biosensors were then dipped into the thermal stresses cell culture supernatants for 5 minutes.

hMPV100 = target: T1, hMPV100 (hMPV B, UniProt Q6WB98 19-102); assay: BLI, no stress
T1 construct: T411C-Q434C
Method: as §1, §2

hMPV101 = target: T2, hMPV101 (hMPV B, UniProt Q6WB98 19-102); assay: BLI, no stress
T2 construct: A140C-S149C
Method: as §1, §2

hMPV102 = target: T3, hMPV102 (hMPV B, UniProt Q6WB98 19-102); assay: BLI, no stress
T3 construct: L141C-A161C
Method: as §1, §2

hMPV103 = target: T4, hMPV103 (hMPV B, UniProt Q6WB98 19-102); assay: BLI, no stress
T4 construct: E146C-T160C
Method: as §1, §2

hMPV104 = target: T5, hMPV104 (hMPV B, UniProt Q6WB98 19-102); assay: BLI, no stress
T5 construct: A459P
Method: as §1, §2

hMPV105 = target: T6, hMPV105 (hMPV B, UniProt Q6WB98 19-102); assay: BLI, no stress
T6 construct: G239A
Method: as §1, §2

hMPV106 = target: T7, hMPV106 (hMPV B, UniProt Q6WB98 19-102); assay: BLI, no stress
T7 construct: T49I
Method: as §1, §2

hMPV107 = target: T8, hMPV107 (hMPV B, UniProt Q6WB98 19-102); assay: BLI, no stress
T8 construct: S149T
Method: as §1, §2

hMPV108 = target: T9, hMPV108 (hMPV B, UniProt Q6WB98 19-102); assay: BLI, no stress
T9 construct: T365I
Method: as §1, §2

hMPV078 = target: T10, hMPV078 (hMPV A, UniProt Q6WB98 19-102); assay: BLI, 53C stress
T10 construct: T411C-Q434C, A140C-S149C
Method: (§3) The OCTET HTX (Sartorius, Gottingen, Germany) instrument was used to evaluate the expression and conformational integrity for each mutant. All measurements were conducted at 30° C. temperature in 96-well black plates (Corning, Corning, NY) with a final volume of 240 μL per well at a constant agitation rate of 1000 RPM.
(§4) Conformation integrity of hMPV A F protein mutants were evaluated by thermal stress experiments. Crude cell culture supernatants were normalized based on the results of the titer quantitation and then incubated for 1 hour at room temperature and two higher temperatures. […] Anti-Human IgG Fc Capture (AHC) biosensors were first equilibrated in PB before being dipped into more PB to establish the initial baseline. […] The mAb-bound biosensors were then dipped into the thermal stressed cell culture supernatants for 5 minutes. The kinetics analysis was done by OCTET data analysis software (version 12.0, Sartorius) based on curve fitting of the entire associate step.

hMPV079 = target: T11, hMPV079 (hMPV A, UniProt Q6WB98 19-102); assay: BLI, 53C stress
T11 construct: T411C-Q434C, A140C-S149C, A459P
Method: as §3, §4

hMPV081 = target: T12, hMPV081 (hMPV A, UniProt Q6WB98 19-102); assay: BLI, 53C stress
T12 construct: T411C-Q434C, A140C-S149C, T365I
Method: as §3, §4

hMPV082 = target: T13, hMPV082 (hMPV A, UniProt Q6WB98 19-102); assay: BLI, 53C stress
T13 construct: T411C-Q434C, A140C-S149C, G239A
Method: as §3, §4

hMPV083 = target: T14, hMPV083 (hMPV A, UniProt Q6WB98 19-102); assay: BLI, 53C stress
T14 construct: T411C-Q434C, A140C-S149C, A459P, G239A, T49I, T365I
Method: as §3, §4

hMPV084 = target: T15, hMPV084 (hMPV A, UniProt Q6WB98 19-102); assay: BLI, 53C stress
T15 construct: T411C-Q434C, L141C-A161C
Method: as §3, §4

hMPV085 = target: T16, hMPV085 (hMPV A, UniProt Q6WB98 19-102); assay: BLI, 53C stress
T16 construct: T411C-Q434C, L141C-A161C, A459P
Method: as §3, §4

hMPV086 = target: T17, hMPV086 (hMPV A, UniProt Q6WB98 19-102); assay: BLI, 53C stress
T17 construct: T411C-Q434C, L141C-A161C, T49I; also called hMP0086
Method: as §3, §4

hMPV087 = target: T18, hMPV087 (hMPV A, UniProt Q6WB98 19-102); assay: BLI, 53C stress
T18 construct: T411C-Q434C, L141C-A161C, T365I
Method: as §3, §4

hMPV088 = target: T19, hMPV088 (hMPV A, UniProt Q6WB98 19-102); assay: BLI, 53C stress
T19 construct: T411C-Q434C, L141C-A161C, G239A
Method: as §3, §4

hMPV089 = target: T20, hMPV089 (hMPV A, UniProt Q6WB98 19-102); assay: BLI, 53C stress
T20 construct: T411C-Q434C, L141C-A161C, S149T
Method: as §3, §4

hMPV090 = target: T21, hMPV090 (hMPV A, UniProt Q6WB98 19-102); assay: BLI, 53C stress
T21 construct: T411C-Q434C, L141C-A161C, A459P, G239A, T49I, S149T, T365I
Method: as §3, §4

hMPV097 = target: T22, hMPV097 (hMPV A, UniProt Q6WB98 19-102); assay: BLI, 53C stress
T22 construct: T411C-Q434C, E146C-T160C, A459P, G239A, T49I, S149T, T365I
Method: as §3, §4

hMPV A F WT Control = hMPV A F WT Control (hMPV A, UniProt Q6WB98 19-102); assay: BLI, 53C stress
Method: as §3, §4

[1] = target: T23, stabilized hMPV F protein trimer in pre-fusion conformation (human metapneumovirus); assay: BLI, mAb captured, F protein at 50 nM
T23 construct: also called preF-hMPV; hMPV pre-fusion F protein

PIV1014 = target: T24, PIV1014 (PIV1); assay: BLI, no stress;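 note: binding of thermally stressed PIV1 F mutant supernatant to mAb on AHC biosensors for 5 min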
T24 construct: Q92C-G134C
Method: as §1
(§5) Conformation integrity of PIV1 F protein mutants were evaluated by a thermal stress experiment. Crude cell culture supernatants were normalized based on the results of the titer quantitation and then incubated for 1 hour at room temperature and two higher temperatures. For the initial testing of PIV1 mutants, the two temperatures were 50° C. and 53° C. […] Anti-Human IgG Fc Capture (AHC) biosensors were first equilibrated in PB for before being dipped into more PB to establish the initial baseline. […] The mAb-bound biosensors were then dipped into the thermal stresses cell culture supernatants for 5 minutes.

PIV1027 = target: T25, PIV1027 (PIV1); assay: BLI, no stress;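 note: binding of thermally stressed PIV1 F mutant supernatant to mAb on AHC biosensors for 5 min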
T25 construct: S473L
Method: as §1, §5

PIV1028 = target: T26, PIV1028 (PIV1); assay: BLI, no stress;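 note: binding of thermally stressed PIV1 F mutant supernatant to mAb on AHC biosensors for 5 min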
T26 construct: A480L
Method: as §1, §5

PIV1030 = target: T27, PIV1030 (PIV1); assay: BLI, no stress;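 note: binding of thermally stressed PIV1 F mutant supernatant to mAb on AHC biosensors for 5 min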
T27 construct: A466L, S473A
Method: as §1, §5

PIV1031 = target: T28, PIV1031 (PIV1); assay: BLI, no stress
T28 construct: A466L, S473L
Method: as §1, §5

PIV1033 = target: T29, PIV1033 (PIV1); assay: BLI, no stress
T29 construct: T198A
Method: as §1, §5

PIV1039 = target: T30, PIV1039 (PIV1); assay: BLI, no stress
T30 construct: A128P
Method: as §1, §5

[2] = target: T31, stabilized hPIV1 F protein trimer in pre-fusion conformation (human parainfluenza virus 1); assay: BLI, mAb captured, F protein at 50 nM
T31 construct: also called preF-hPIV1; HPIV1 pre-fusion F protein

[3] = target: stabilized hPIV3 F protein trimer in pre-fusion conformation (human parainfluenza virus 3); assay: BLI, mAb captured, F protein at 50 nM

B1: hMPV-2 mAb (antibody, V domains shown)
VH: QVQLQQSGAEVKKPGASVKVSCKASGYTFTSYGISWVRQAPGQGLEWMGWISGYNGNTNYAQTFQGTFTMTTDTSTSTAYMELRRLRSGDTAVYYCARDRYYASGSYNGMDVWGQGTTVTVSS
VL: QSALTQPPSASGAPGQRVTVSCSGSSSNVGSSSVYWYQQLPGTAPKLLIYRNNQRPSGVPDRFSGSKSGTSASLAISGLRSEDEADYYCAAWDDSLSGWVFGGGTKLTVLG
notes: human IgG1
hMPV B F WT Control
  Response Shift: 0.867 nm
hMPV100
  Response Shift: 0.863 nm
hMPV101
  Response Shift: 0.707 nm
hMPV102
  Response Shift: 0.84 nm
hMPV103
  Response Shift: 0.814 nm
hMPV104
  Response Shift: 0.85 nm
hMPV105
  Response Shift: 0.906 nm
hMPV106
  Response Shift: 0.912 nm
hMPV107
  Response Shift: 0.89 nm
hMPV108
  Response Shift: 0.89 nm
hMPV078
  Response Shift: 0.757 nm
hMPV079
  Response Shift: 0.73 nm
hMPV081
  Response Shift: 0.778 nm
hMPV082
  Response Shift: 0.816 nm
hMPV083
  Response Shift: 0.755 nm
hMPV084
  Response Shift: 0.776 nm
hMPV085
  Response Shift: 0.672 nm
hMPV086
  Response Shift: 0.746 nm
hMPV087
  Response Shift: 0.709 nm
hMPV088
  Response Shift: 0.816 nm
hMPV089
  Response Shift: 0.801 nm
hMPV090
  Response Shift: 0.815 nm
hMPV097
  Response Shift: 0.82 nm
hMPV A F WT Control
  Response Shift: -0.014 nm
[1]
  Binding response BLI: 1.21 nm

B2: PIV1-8 mAb (antibody, V domains shown)
VH: QVQLVQSGAEVKKPGSSVKVSCEASGGTFSNYVISWVRQAPGQGLEWMGGIIPVFATAKYAQKFQGRVTIIADQSTNTAYLELSSLRSDDTAVYFCASVDSGGTWWDAFAIWGQGTMVTVSS
VL: QAVVTQPRSVSGSPGQAVTISCTGTSSDVGGYNYVSWYQHHPGKAPKLIIYDVTKRPSGVPDRFSGSKSGNTASLTISGLQTEYEADYYCCSYAGSYTLVFGGGTKLTVLG
notes: human IgG1; also called hPIV1-8 mAb; hPIV1-8
PIV1014
  Response Shift: 0.857 nm
PIV1027
  Response Shift: 0.748 nm
PIV1028
  Response Shift: 0.579 nm
PIV1030
  Response Shift: 0.753 nm
PIV1031
  Response Shift: 0.766 nm
PIV1033
  Response Shift: -0.056 nm
PIV1039
  Response Shift: -0.068 nm
[2]
  Binding response BLI: 1.96 nm
[3]
  Binding response BLI: -0.052 nm
[1]
  Binding response BLI: -0.051 nm
